Source: patent US20060134116A1, “Ca 125 tumor antigen function and uses thereof” (Universite De Sherbrooke, priority 2002, published 2006)

Key:
CA125 [1] = molecular target: T1, CA125 (Homo sapiens, UniProt Q8WXI7); assay: Immunofluorescence of CA125 at the cell surface, transient transfection of OVCAR-3 cells; assay type: cell-based; details: transiently transfected OVCAR-3 cells
T1 construct: human ovarian cancer cell lines OVCAR-3 (high expresser of CA125); endogenous in cells; host or cells: NIH:OVCAR-3
Source text: B) NIH:OVCAR-3 cellswere transiently transfected with pSTCF.Golgi-OC125-3.11 or pSTCF.KDEL-VK-8-1.9 constructs and 48 hrs later the cells were fixed in ice-cold methanol. Expression of scFvs and CA125 was detected using the anti-c-myc A14 polyclonal antibody and anti-CA125 M11 monoclonal antibody. Oregon green anti-rabbit and Texas red anti-mouse secondary antibodies were used.
Anti-CA125 scFvs act therefore act as potent negative modulators of CA125.
Immunofluorescence—Transiently transfected NIH-OVCAR-3 cells or stable NIH:OVCAR-3 clones expressing the various anti-CA125 scFvs were grown on glass slide until a 50% confluence was reached. […] Slides were next washed 3 times in cold PBS, incubated for 30 min at room temperature with anti-mouse or anti-rabbit secondary antibodies coupled to Texas Red or Oregon green (1:1000), washed with PBS and mounted for visualization by fluorescence microscopy. Expression of the various anti-CA125 scFvs and CA125 was detected using anti-c-myc antibody (9E10, 1:500) and OC125 antibody (1:500). Localization of the scFvs was determined by comparing their pattern of expression with that of calreticulin and ADP-ribosylation factor for ER and Golgi localization using anti-calreticulin antibody (1:10000) anti-calreticulin and anti-ADP-ribosylation factor (1:400).

purified human CA125 = assay: CA125 binding analysis by ELISA (periplasmic extracts); details: commercially purified human CA125
Source text: A) CA125 binding activity of anti-CA125 OC125, VK-8-1.9 and VK-8-4.5 scFvs present in periplasmic extracts of bacteria as well as anti-Bcl2 4D7 scFv compared to parental Mabs OC125 and VK-8 and to PBS and periplasmic extract from bacteria, uninduced, IPTG-induced and controls.
The inventors constructed single-chain antibody libraries derived from the OC125 and VK-8 hybridoma cell lines specific for CA125. The two scFv libraries were screened for CA125 binding activity by ELISA using commercially purified human CA125. […] The inventors hypothesized that if those scFvs (CA125 binders) once expressed intracellularly were localized to and retained within the ER or the Golgi then CA125 antigen would be entrapped during synthesis and thus be unable to localize at cell surface and interact with other intracellular and/or extracellular proteins to achieve its function(s). The scFvs were targeted to the ER or trans-median Golgi by sequence fusion with an Igκ secretion leader and a KDEL signal or fusion with the N-terminal 81 amino acids of human beta 1,4-galactosyltransferase, a protein resident of the trans-medial Golgi (47-49) in addition ot a c-myc tag at the C-terminus.
Binding analysis by ELISA—Periplasmic extracts were prepared as previously described (29). […] The OD was read at 450 ηm in an ELISA plate reader.

CA125 [2] = molecular target: T1, CA125; assay: Co-immunoprecipitation of scFvs with anti-CA125 MAbs from transiently transfected NIH:OVCAR-3 cells; assay type: binding; details: transient transfection in NIH:OVCAR-3
Source text: C) Immunoprecipitation and co-immunoprecipitation of Golgi- and ER-targeted OC125-3.11 scFv from transient transfection of pSTCF.GOLGI-OC125-3.11 and pSTCF.KDEL-OC125-3.11 in NIH:OVCAR-3 human ovarian cancer cells using anti-c-myc, anti-CA125 Mabs OC125 and VK-8, western blot probed with anti-c-myc 9E10 antibody.
D) Immunoprecipitation and co-immunoprecipitation of Golgi- and ER-targeted VK-8-1.9 scFv from transient transfection of pSTCF-GOLGI-VK8-1.9 and pSTCF.KDEL-VK8-1.9 in NIH:OVCAR-3 human ovarian cancer cells using anti-c-myc, anti-CA125 Mabs OC125 and VK-8, Western blot probed with anti-c-myc 9E10 antibody.
E) Immunoprecipitation and co-immunoprecipitation of ER-targeted VK-8-4.5 scFv from transient transfection of pSTCF.KDEL-VK8-4.5 in NIH:OVCAR-3 human ovarian cancer cells using anti-c-myc, anti-CA125 Mabs OC125 and VK-8, western blot prober with anti-c-myc 9E10 antibody. […]
Immunoprecipitation—NIH-OVCAR-3 cells were transiently transfected with the various scFv constructs using commercially available FuGene 6 transfection agent using the manufacturer's instruction. […] Protein concentration was measured by the Bradford method using the Bio-Rad protein assay according to the instruction provided by the manufacturer. […] Agarose or sepharose beads were pelleted and supernatants were analyzed by immunoblots for the presence of the various scFvs.

B1: OC125-3.11: anti-CA125 single-chain antibody derived from the OC 125 monoclonal antibody, fragment coded by SEQ ID NO 2 (protein)
chain: QVQLQQSGTVLARPGASVKMSLQASGYTFTSYWMHWVKQRPGQGLEWIGAIYPGNSDTSYNQKFKGKAKLTAVTSTSTAYMELSSLTNEDSAVYYCTRSYDWYFDVWGQGTTVTVSSGGGGSGGGGSGGGGSDIELTQSPAILSVSPGERVSFSCRASQSIGTDMHWYQQRTNGSPRLLIKYASESISGIPSRFSGSGSGTDFTLSINSVESEDIADYYCQQSYSWPLTFGAGTKLEIK
modifications: Golgi targeting; VH-linker-VL portion of OC125-3.11
- expression of CA125 at the cell surface (CA125 [1]): lost expression of CA125 at the cell surface
- CA125 binding activity by ELISA (purified human CA125): bound to CA125
- co-immunoprecipitation with CA125 using anti-CA125 OC125 and VK-8 MAbs (CA125 [2]): co-immunoprecipitated
